Starred links: 1 amine or outer side, 2 acyl side, 3 side chain; linkers in the order of their positions; H or OH if unused. Positions of bridges follow the written chain, without caps; N, C: chain ends. Non-standard residues stand in square brackets, D forms with d. Groups on a side chain read outwards from the residue. Primed or numbered codes have the meaning given here. Chains are numbered I, II in the order given. No end group written: not given here. *: point of attachment. dLys(PYA) = D-lysine Nε-acylated with 4-pentynoic acid, clicked (triazole) to the linker azide, O=C(CCc1cn([*:3])nn1)NCCCC[C@@H](N[*:1])C(=O)[*:2]; TATA = O=C(CC[*:1])N1CN(C(=O)CC[*:2])CN(C(=O)CC[*:3])C1; Biotin = O=C1N[C@H]2[C@H](CS[C@H]2CCCCC(=O)*)N1; 1Nal = N[C@@H](Cc1cccc2ccccc12)C(=O)O; Hyp = O=C(O)[C@@H]1C[C@@H](O)CN1; hArg = N=C(N)NCCCC[C@H](N)C(=O)O; tBuAla = CC(C)(C)C[C@H](N)C(=O)O; PEG12′ = not defined here; Nle = CCCC[C@H](N)C(=O)O

Test [1] deals with T1, CD137 on Jurkat reporter cells (Promega kit CS196005) (UniProt Q07011 24-255, limits assumed). The experiment in a line: cell-based or functional assay.
For test [2], the target named is T1, CD137 on Jurkat reporter cells (Promega …). Kind of test: cell-based or functional assay. The source holds these as a separate data set.
The target of test [3] is T2, rat CD137 extracellular domain (rat, UniProt Q4W8J3 24-189).
T2 sequence: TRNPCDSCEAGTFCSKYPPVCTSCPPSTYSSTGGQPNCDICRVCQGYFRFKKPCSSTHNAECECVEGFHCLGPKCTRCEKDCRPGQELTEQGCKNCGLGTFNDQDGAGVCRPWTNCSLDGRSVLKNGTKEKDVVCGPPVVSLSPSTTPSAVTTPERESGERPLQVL
The experiment in a line: SPR direct binding, captured BCY13582, n = 1.

For test [4], the target named is T3, mouse CD137 extracellular domain (mouse, UniProt P20334 24-187).
T3 construct: extracellular domain
T3 sequence (looked up): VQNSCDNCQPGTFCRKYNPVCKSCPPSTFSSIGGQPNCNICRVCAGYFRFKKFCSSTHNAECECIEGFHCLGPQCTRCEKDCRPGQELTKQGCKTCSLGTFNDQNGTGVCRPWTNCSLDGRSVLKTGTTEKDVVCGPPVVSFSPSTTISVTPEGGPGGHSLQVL
The experiment in a line: SPR direct binding, captured BCY13582, n = 1.

For test [5], the target named is T4, soluble OX40 (UniProt P43489 29-216, limits assumed).
T4 construct: also called soluble TNF family receptor OX40
T4 sequence (looked up): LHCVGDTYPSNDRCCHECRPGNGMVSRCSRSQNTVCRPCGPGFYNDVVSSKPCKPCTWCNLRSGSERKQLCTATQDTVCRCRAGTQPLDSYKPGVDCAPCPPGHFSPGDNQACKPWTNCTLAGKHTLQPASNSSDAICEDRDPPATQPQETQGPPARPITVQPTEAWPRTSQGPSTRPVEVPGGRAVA
Kind of test: SPR, streptavidin captured BCY13582, soluble receptor. In general terms: Surface plasmon resonance follows binding to a sensor surface in real time, without labels.

Test [6] concerns the target T5, soluble CD40 (UniProt P25942 21-193, limits assumed).
T5 construct: also called soluble TNF family receptor CD40
The test is described as above.

In test [7] the target is T6, cyno (NHP) CD137 extracellular domain (cyno (NHP), UniProt A9YYE7 24-186).
T6 construct: extracellular domain
The experiment in a line: SPR direct binding, captured BCY13582, soluble CD137 ECD, n = 1.

Test [8] has as its target T7, human CD137 extracellular domain (human, UniProt Q07011 24-186, biotinylated where captured on the streptavidin chip).
T7 construct: extracellular domain; Section 17 says only 'Recombinant human CD137 (R&D systems)'; also called CD137 (human); Recombinant human CD137 (R&D systems)
The experiment in a line: SPR direct binding, captured BCY13582, soluble CD137 ECD, n = 3.

The target in test [9] is T8, GPR39 (human, UniProt O43194).
T8 construct: full-length protein over-expressed in HEK293 cells
T8 sequence (single chain, looked up): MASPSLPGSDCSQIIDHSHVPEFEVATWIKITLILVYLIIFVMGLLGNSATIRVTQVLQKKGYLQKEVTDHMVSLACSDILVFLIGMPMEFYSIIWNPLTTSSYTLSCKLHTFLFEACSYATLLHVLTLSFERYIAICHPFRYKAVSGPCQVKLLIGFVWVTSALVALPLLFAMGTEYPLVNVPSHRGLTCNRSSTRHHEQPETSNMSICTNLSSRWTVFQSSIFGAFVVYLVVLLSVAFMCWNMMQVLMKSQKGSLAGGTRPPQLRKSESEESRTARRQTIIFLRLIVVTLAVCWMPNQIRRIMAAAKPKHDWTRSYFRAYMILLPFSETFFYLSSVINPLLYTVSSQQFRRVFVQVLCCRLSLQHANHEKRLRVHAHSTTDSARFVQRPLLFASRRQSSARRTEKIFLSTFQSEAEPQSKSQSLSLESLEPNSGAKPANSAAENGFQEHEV
Kind of test: Retrogenix cell microarray, HEK293 cells over-expressing the protein, detection with AlexaFluor647 streptavidin.

Test [10] addresses T9, EVA1C (human, UniProt P58658).
T9 construct: full-length protein over-expressed in HEK293 cells
T9 sequence (single chain, looked up): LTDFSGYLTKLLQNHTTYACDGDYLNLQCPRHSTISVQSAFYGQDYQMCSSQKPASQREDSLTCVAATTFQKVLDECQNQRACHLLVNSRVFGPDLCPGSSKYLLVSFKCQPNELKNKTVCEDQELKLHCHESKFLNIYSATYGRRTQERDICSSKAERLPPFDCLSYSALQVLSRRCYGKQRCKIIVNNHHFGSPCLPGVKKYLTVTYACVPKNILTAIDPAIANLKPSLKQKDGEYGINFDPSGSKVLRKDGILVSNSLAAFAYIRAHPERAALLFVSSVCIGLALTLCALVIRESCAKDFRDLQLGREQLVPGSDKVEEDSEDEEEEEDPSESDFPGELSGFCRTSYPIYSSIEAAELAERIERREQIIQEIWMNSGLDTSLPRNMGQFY
Described as above.

The target in test [11] is T10, IGFBP1 (human, UniProt P08833).
T10 construct: full-length protein over-expressed in HEK293 cells
T10 sequence (single chain, looked up): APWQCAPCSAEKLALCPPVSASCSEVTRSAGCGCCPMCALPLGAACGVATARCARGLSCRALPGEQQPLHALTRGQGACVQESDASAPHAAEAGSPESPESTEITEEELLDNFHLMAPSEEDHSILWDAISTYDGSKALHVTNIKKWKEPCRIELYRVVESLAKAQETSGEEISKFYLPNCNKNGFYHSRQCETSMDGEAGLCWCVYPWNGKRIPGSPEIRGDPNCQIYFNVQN
The description is as above.

Test [12] deals with T11, HMGB2 (human, UniProt P26583).
T11 construct: full-length protein over-expressed in HEK293 cells
T11 sequence (single chain, looked up): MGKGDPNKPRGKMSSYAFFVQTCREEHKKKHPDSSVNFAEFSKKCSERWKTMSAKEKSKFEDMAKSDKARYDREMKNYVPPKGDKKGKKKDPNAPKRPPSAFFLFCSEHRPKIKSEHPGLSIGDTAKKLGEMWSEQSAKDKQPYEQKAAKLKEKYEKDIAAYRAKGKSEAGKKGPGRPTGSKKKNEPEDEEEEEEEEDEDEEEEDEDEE
The test is described as above.

Test [13] concerns the target T12, METTL24 (human, UniProt Q5JXM2).
T12 construct: full-length protein over-expressed in HEK293 cells
T12 sequence (single chain, looked up): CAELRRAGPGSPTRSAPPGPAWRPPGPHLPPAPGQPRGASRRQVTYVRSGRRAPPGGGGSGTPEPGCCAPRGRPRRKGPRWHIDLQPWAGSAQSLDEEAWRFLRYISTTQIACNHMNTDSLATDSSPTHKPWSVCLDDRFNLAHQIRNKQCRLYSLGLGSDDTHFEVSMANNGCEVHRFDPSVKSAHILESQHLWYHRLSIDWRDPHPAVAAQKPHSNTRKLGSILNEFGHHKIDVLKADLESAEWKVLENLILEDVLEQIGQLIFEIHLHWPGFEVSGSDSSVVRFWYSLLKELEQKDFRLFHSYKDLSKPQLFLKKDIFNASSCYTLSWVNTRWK
The test is described as above.

Test [14] addresses T13, APLN (human, UniProt Q9ULZ1).
T13 construct: full-length protein over-expressed in HEK293 cells
T13 sequence (single chain, looked up): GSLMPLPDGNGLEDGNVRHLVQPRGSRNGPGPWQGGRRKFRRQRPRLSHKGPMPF
Described as above.

T1 sequence (Q07011 24-255 limits assumed): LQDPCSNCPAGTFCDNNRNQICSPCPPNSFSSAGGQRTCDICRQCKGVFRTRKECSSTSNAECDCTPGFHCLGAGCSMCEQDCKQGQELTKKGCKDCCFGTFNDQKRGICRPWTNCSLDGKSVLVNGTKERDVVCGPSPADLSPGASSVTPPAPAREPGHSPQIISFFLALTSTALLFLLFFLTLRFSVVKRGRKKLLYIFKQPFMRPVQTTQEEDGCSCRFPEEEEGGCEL
T6 sequence (A9YYE7 entry or part of it): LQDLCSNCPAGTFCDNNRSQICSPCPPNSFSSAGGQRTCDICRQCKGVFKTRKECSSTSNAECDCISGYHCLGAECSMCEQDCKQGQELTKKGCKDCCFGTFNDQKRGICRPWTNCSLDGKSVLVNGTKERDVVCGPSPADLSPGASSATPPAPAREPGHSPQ
T5 sequence (P25942 21-193 limits assumed): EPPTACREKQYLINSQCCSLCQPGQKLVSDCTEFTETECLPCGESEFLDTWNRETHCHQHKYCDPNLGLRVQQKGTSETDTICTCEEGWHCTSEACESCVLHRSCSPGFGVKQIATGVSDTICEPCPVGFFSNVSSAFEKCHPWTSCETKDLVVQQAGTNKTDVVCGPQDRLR
T7 sequence (Q07011 24-186): as the sequence (A9YYE7 entry or part of it) above, with L4P, S19N, K50R, I66T, S67P, Y69F, E75G, A149V counted along it

B1: BCY13582 (biotinylated BCY11863) (peptide)
peptide 1: CP[1Nal][dD]CM[hArg]DWSTP[Hyp]WC
peptide 2: Ac-C[tBuAla]PE[dLys(PYA)]PYCFADPY[Nle]CA
peptide 3: Ac-C[tBuAla]PE[dLys(PYA)]PYCFADPY[Nle]CK([PEG12′-Biotin])
modifications: linker I:1-I:5-I:15, II:1-II:8-II:15, III:1-III:8-III:15 via TATA; also: linker at chain B 5 at chain C 5 to a chain's N-terminus via N-(acid-PEG3)-N-bis(PEG3-azide)
notes: also called test peptide
A word on the Kd: it is the constant that tells how readily two partners part at equilibrium. Read a high Kd as a looser complex. As for B1, in [1], the “Arithmetic mean EC50 (nM), HT1376 co-culture” value came to 0.58 nM. Further, the “Arithmetic mean EC50 (nM), MDA-MB-468 co-culture” value in test [1] amounted to 0.34 nM. Further, the “EC50 (nM), HT1376 co-culture” value in [2] was 0.58 nM. Further, in [2], the “Emax (fold induction over background), HT1376” value is 57 fold over background. For the same molecule, the binding result in test [3] is reported as “no binding”; in [4] it was “no binding”; in test [5] it was “no binding (tested: 100 nM)”; in test [6], “no binding (tested: 100 nM)”; in test [9], “no binding (tested: 1 µM)”; in test [10] it was “no binding (tested: 1 µM)”. The binding result in test [11], in test [12], in test [13] and in [14] was “no binding (tested: 1 µM)” throughout. Moreover, the Kd in [7] is 4.23 nM; in test [8] it was 8.4 nM.

Values taken from US20230129258A1 (Bicycle, published 2023).
